Laboratory results from patent EP4722246A1 (Inxmed (Nanjing) Co., Ltd., dated 2024).
Each block holds one binder with its values, some of them ahead of it.

Legend:
[1] = biological target: human TEM8 on CHO-hTEM8 cells (human, UniProt Q9H6X2 33-564); test: FACS on CHO-hTEM8 cells
[2] = biological target: T1, mouse TEM8 on CHO-mTEM8 cells (mouse, UniProt Q9CZ52 31-562); test: FACS on CHO-mTEM8 cells
T1 construct: also called murine TEM8
T1 sequence (Q9CZ52 31-562): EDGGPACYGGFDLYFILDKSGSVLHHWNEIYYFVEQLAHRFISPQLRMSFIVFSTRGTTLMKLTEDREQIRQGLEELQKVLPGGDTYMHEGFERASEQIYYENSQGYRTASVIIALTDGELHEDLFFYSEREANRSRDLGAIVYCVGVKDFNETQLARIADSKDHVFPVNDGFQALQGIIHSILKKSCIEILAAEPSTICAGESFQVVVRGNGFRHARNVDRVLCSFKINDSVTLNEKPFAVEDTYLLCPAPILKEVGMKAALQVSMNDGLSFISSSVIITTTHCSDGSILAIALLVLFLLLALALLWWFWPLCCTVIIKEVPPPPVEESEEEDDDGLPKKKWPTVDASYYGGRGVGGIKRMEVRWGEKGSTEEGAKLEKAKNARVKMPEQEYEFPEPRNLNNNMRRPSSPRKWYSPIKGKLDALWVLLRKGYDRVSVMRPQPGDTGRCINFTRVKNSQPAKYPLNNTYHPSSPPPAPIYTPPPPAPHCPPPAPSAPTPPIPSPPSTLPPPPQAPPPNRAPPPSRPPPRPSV

B1: 11B7 (antibody, human IgG1, lambda, L234A L235A, V domains shown)
VH: QVQLVQSGGGVVQPGRPLRLSCAASGFNLGSYAMSWVRQAPGKGLEWVSAISGSGGSTYYADSVKGRFTISRDNSKNTLYLQMNSLRAEDTAVYYCAKILGPGNLNYYYYYGMDVWGQGTTVTVSS
VL: SSELTQDPAVSVALGQTVRITCQGDSLRNSYASWYQQKPGQAPVLVIYGNNNRPSGIPDRVSGSRSGNTASLTITGAQAEDEADYYCNSRDSSGNHVVFGGGTELTVLG
notes: Full IgG made in CHO cells, lambda constant region; also called TEM8-11B7
EC50 [1]: 0.85 nM
EC50 [2]: 1.21 nM

B3: 7E3 (antibody, human IgG1, lambda, L234A L235A, V domains shown)
VH: QVQLVESGGGLVNPGGSLRLSCAVSGFTSSGFSINWVRQAPGKGLEWVSSISGIGDSIFYADSVKGRFTISRDNAKNLVFLQMNSVKAEDTAVYYCVRDKWGWGTYSLFDYWGQGTLVTVSS
VL: QAVLTQPPSASGTPGQRVTISCSGSSSNIASNVVSWYQQLPGTAPKVLIYSNNRRPSGVPDRFSGSKSGASASLAISGLQSDDETHYYCAAWDDSLKGPVFGGGTQLTVLG
notes: Full IgG made in CHO cells, lambda constant region; also called TEM8-7E3
EC50 [1]: 0.75 nM
EC50 [2]: 1.41 nM

B4: 3B3 (antibody, human IgG1, kappa, L234A L235A, V domains shown)
VH: EVQLVQSGGGLVKPGGSLRLSCAASGFTFSSYSMNWVRQAPGKGLEWVSSISSSSSYIYYADSVKGRFTISRDNAKNSLYLQMNSLRAEDTAVYYCARVRPPYGMDVWGQGTLVTVSS
VL: NIQMTQSPSSVSASVGDTVTISCRASQGISNWLGWYQQRPGEAPKLLIYAASHLQSGVPSRFSGSGSGTDFVLTITSLQPEDFATYYCQQSNSFPLAFGGGTKLEIKR
notes: Full IgG made in CHO cells, kappa constant region; also called TEM8-3B3
EC50 [1]: 1.51 nM
EC50 [2]: 2.14 nM

Binders with a lower EC50 [1], results first:

EC50 [1]: 0.71 nM
EC50 [2]: 1.48 nM
B5: 3A3 (antibody, human IgG1, kappa, L234A L235A, V domains shown)
VH: QVQLVQSGPEVKKPGAPVKISCKTSGYIFDDYGITWVRQAPGQGLEWLGWISTYNGKTSFAQKVQGRLTMTTDISTNTASMELRGLRSDDTALYYCARVFSRYIPFYFDSWGQGTLVTVSS
VL: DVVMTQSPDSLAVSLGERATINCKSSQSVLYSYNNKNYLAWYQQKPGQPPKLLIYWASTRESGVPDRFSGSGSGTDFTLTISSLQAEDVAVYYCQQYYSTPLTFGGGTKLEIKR
notes: Full IgG made in CHO cells: variable regions joined to the IgG heavy chain constant region and the kappa constant region; also called TEM8-3A3

EC50 [1]: 0.63 nM
EC50 [2]: 1.16 nM
B2: 6A6Q (antibody, human IgG1, lambda, L234A L235A, V domains shown)
VH: EVQLVESGGGVVQPGGSLRLSCAASGFTFDDYAMHWVRQAPGKGLEWVSLISGDGGSTYYADSVKGRFTISRDNSKNSLYLQMNSLKASDTAMYYCARPRWGRYSSSWPFDYWGQGTLVTVSS
VL: QSALTQPASVSGSPGQSITISCTGTSSDVGTYNYVSWYQQHPGKAPKLMIYDVTDRPSGISNRFSGSKSGNTASLTISGLQAEDEGNYYCSSYTSQRSWVFGGGTKLTVLG
notes: Full IgG made in CHO cells, lambda constant region; Variant of 6A6 whose light chain glycosylation site NRS was mutated to QRS; also called TEM8-6A6Q
